Source: patent publication US20250154240A1, “ANTI-HUMAN CXCL1 ANTIBODY” (CHIOME BIOSCIENCE INC., priority 2022, published 2025)

Assays:
MsCXCL1 = molecular target: T1, MsCXCL1 (Mus musculus, UniProt P12850); experiment: ELISA, inhibition of binding of MsCXCL1 to GAG (heparin, heparan sulfate); type: biochemical; parameters: purchased PROTEINTECH; details: antibody 0 to 10 μg/mL; biotin-labeled heparin or heparan sulfate 10 μg/mL
T1 sequence (P12850 25-96): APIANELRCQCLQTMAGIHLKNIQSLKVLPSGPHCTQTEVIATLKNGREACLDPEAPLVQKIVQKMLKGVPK
Procedure: (§1) Thus, the effect of Hu5A-5E11 on the binding of CXCLs to GAG was evaluated by ELISA assay using plates on which the antigen (HuCXCL1 protein) used for immunization or HuCXCL2, 3 and 5 and MsCXCL1 and 2 proteins had been directly immobilized. CXCLs other than HuCXCL1 were purchased from PROTEINTECH and used. Biotin-labeled heparan sulfate and heparin were purchased from PG Research and used.
(§2) To 96-well plates, phosphate-buffered saline (PBS) containing 3 μg/mL of HuCXCL1, 2, 3 or 5 or MsCXCL1 or 10 μg/mL of MsCXCL2 was added in a volume of 50 μL per well, and the plates were allowed to stand overnight at 4° C. After removal of the antigen solutions, PBS containing 0.05% Tween-20 (hereinafter referred to as the blocking solution) was added to each well for blocking reaction, and the plates were allowed to stand at room temperature for 30 minutes. […] TMB (Dako) was added as a chromogenic substrate solution to cause color development, and 1 N sulfuric acid was added to stop the reaction, followed by measurement of absorbance at 450 nm. The binding rate of CXCLs to GAG was calculated as a ratio relative to the absorbance measured in the absence of the antibody, which was set to 100%.

HuCXCL5 = molecular target: T2, HuCXCL5 (Homo sapiens, UniProt P42830); experiment: FACS, inhibition of binding of APC-labeled HuCXCL5 to HEK293 cells forced to express HuCXCR2; type: cell-based; parameters: purchased PROTEINTECH; host or cells: CXCR2: transfected HEK293 cells; details: APC-labeled ligand 10 μg/mL; HEK293 cells expressing HuCXCR2
T2 sequence (P42830 37-114): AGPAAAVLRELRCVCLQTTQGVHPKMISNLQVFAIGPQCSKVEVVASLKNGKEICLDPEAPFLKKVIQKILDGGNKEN
Procedure: (§3) Chemokines are stabilized by directly binding to GAG on the cell surface and thereby allow efficient signal transduction to their receptors. […] Then, to evaluate whether Hu5A-5E11 inhibits the binding of CXCLs to cells, the binding of fluorescently labeled CXCLs to cells was measured as fluorescence intensity by flow cytometry in FACS. For this purpose, HEK293 cells forced to express HuCXCR2 were used. For use as HuCXCL1, 2, 3 and 5 and MsCXCL1, the proteins in above were labeled with APC.
(§4) The cultured cells were detached and washed with PBS, and then suspended at 5.0× 10^5 cells/mL in PBS containing 1% BSA (hereinafter referred to as the FACS buffer). Each of the APC-labeled ligands and Hu5A-5E11 were mixed at final concentrations of 10 μg/mL and 16.7 μg/mL, respectively, and reacted at room temperature for 30 minutes, and then added to the cell suspension and reacted on ice for 30 minutes. After washing with the FACS buffer, the cells were suspended again in PBS containing 1% 7-AAD, 0.5% BSA and 2 mM EDTA, followed by the above flow cytometry to measure fluorescence intensity.

HuCXCL1 [1] = molecular target: T3, HuCXCL1 (Homo sapiens, UniProt P09341); experiment: ELISA, inhibition of binding of HuCXCL1 to GAG (heparin, heparan sulfate); type: biochemical; details: antibody 0 to 10 μg/mL; biotin-labeled heparin or heparan sulfate 10 μg/mL
T3 construct: made in house; host or cells: Expi293 expression system (transient), protein from the culture supernatant
T3 sequence (P09341 35-107): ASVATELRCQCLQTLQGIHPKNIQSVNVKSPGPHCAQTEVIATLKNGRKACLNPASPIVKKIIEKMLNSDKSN
Procedure: as §1, §2

HuCXCL1 [2] = molecular target: T3, HuCXCL1; experiment: FACS, inhibition of binding of APC-labeled HuCXCL1 to HEK293 cells forced to express HuCXCR2; type: cell-based; details: APC-labeled ligand 10 μg/mL; HEK293 cells expressing HuCXCR2
Procedure: as §3, §4

B1: Hu5A-5E11: humanized antibody VH1/VL1; VH SEQ ID NO: 76, VL SEQ ID NO: 78 (antibody, V domains shown)
VH: QVQLVQSGAEVKKPGSSVKVSCKASGYAFSDYWMNWVRQAPGQGLEWIGQIYPGSGDTNYNAKFKGKGTITADKSTSTAYMELSSLRSEDTAVYYCARERDYDVAMDYWGQGTTVTVSS
VL: DIQMTQSPSSLSASVGDRVTITCKASQDINKYIAWFQQKPGKAPKLVIHYTSILQPGVPSRFSGSGSGTDYTFTISSLQPEDIATYYCLQYDNLPWTFGGGTKVEIK
- Inhibitory activity against the binding of MsCXCL1 to GAG (MsCXCL1): inhibit the binding of HuCXCL1, 2, 3 and 5 and MsCXCL1 to GAG in an antibody concentration-dependent manner
- Inhibitory activity against the binding of HuCXCL5 to cells (fluorescence intensity) (HuCXCL5): reduce the fluorescence intensity of the cells in an antibody concentration-dependent manner
- Inhibitory activity against the binding of HuCXCL1 to GAG (HuCXCL1 [1]): inhibit the binding of HuCXCL1, 2, 3 and 5 and MsCXCL1 to GAG in an antibody concentration-dependent manner
- Inhibitory activity against the binding of HuCXCL1 to cells (fluorescence intensity) (HuCXCL1 [2]): reduce the fluorescence intensity of the cells in an antibody concentration-dependent manner
